Test results taken from paper PMC8298264, “Function of cofactor Akirin2 in the regulation of gene expression in model human neutrophil-like HL60 cells” (Bioscience Reports, 2021).

Tested on: human HL60 cells
Test: SWATH-MS proteomics, differential protein representation, akirin2 KO vs WT HL60 cells
Type: cell-based
Conditions: akirin2 KO vs WT HL60 cells; sheet "Under-represented in KO"
Outline: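 WT and akirin2 KO HL60 lysates (150 µg, n=3 biological replicates) were FASP trypsin-digested and desalted. A spectral library was built by IDA from 3 µg digests, then 5 µg per sample went to variable-window SWATH DIA over a 120-min 5–30% acetonitrile gradient. Identifications were accepted at 1% global FDR, with total-area-sum normalization.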

B1: sp¦Q13451¦FKBP5_HUMAN (protein, UniProt Q13451 1-457, looked up)
Peptidyl-prolyl cis-trans …: MTTDEGAKNNEESPTATVAEQGEDITSKKDRGVLKIVKRVGNGEETPMIGDKVYVHYKGKLSNGKKFDSSHDRNEPFVFSLGKGQVIKAWDIGVATMKKGEICHLLCKPEYAYGSAGSLPKIPSNATLFFEIELLDFKGEDLFEDGGIIRRTKRKGEGYSNPNEGATVEIHLEGRCGGRMFDCRDVAFTVGEGEDHDIPIGIDKALEKMQREEQCILYLGPRYGFGEAGKPKFGIEPNAELIYEVTLKSFEKAKESWEMDTKEKLEQAAIVKEKGTVYFKGGKYMQAVIQYGKIVSWLEMEYGLSEKESKASESFLLAAFLNLAMCYLKLREYTKAVECCDKALGLDSANEKGLYRRGEAQLLMNEFESAKGDFEKVLEVNPQNKAARLQISMCQKKAKEHNERDRRIYANMFKKFAEQDAKEEANKAMGKKTSEGVTNEKGTDSQAMEEEKPEGHV
**Q.** Which results are given for B1?
**A.** Fold Change: 0.6681; Log (Fold Change): -0.1751

B2: sp¦Q13895¦BYST_HUMAN (protein, UniProt Q13895 1-437, looked up)
Bystin: MPKFKAARGVGGQEKHAPLADQILAGNAVRAGVREKRRGRGTGEAEEEYVGPRLSRRILQQARQQQEELEAEHGTGDKPAAPRERTTRLGPRMPQDGSDDEDEEWPTLEKAATMTAAGHHAEVVVDPEDERAIEMFMNKNPPARRTLADIIMEKLTEKQTEVETVMSEVSGFPMPQLDPRVLEVYRGVREVLSKYRSGKLPKAFKIIPALSNWEQILYVTEPEAWTAAAMYQATRIFASNLKERMAQRFYNLVLLPRVRDDVAEYKRLNFHLYMALKKALFKPGAWFKGILIPLCESGTCTLREAIIVGSIITKCSIPVLHSSAAMLKIAEMEYSGANSIFLRLLLDKKYALPYRVLDALVFHFLGFRTEKRELPVLWHQCLLTLVQRYKADLATDQKEALLELLRLQPHPQLSPEIRRELQSAVPRDVEDVPITVE
**Q.** Which “Fold Change” value does the source give for B2 here?
**A.** 0.6611

**Q.** And the “Log (Fold Change)” value?
**A.** -0.1797

B3: sp¦P56192¦SYMC_HUMAN (protein, UniProt P56192 1-900, looked up)
Methionine--tRNA ligase, …: MRLFVSDGVPGCLPVLAAAGRARGRAEVLISTVGPEDCVVPFLTRPKVPVLQLDSGNYLFSTSAICRYFFLLSGWEQDDLTNQWLEWEATELQPALSAALYYLVVQGKKGEDVLGSVRRALTHIDHSLSRQNCPFLAGETESLADIVLWGALYPLLQDPAYLPEELSALHSWFQTLSTQEPCQRAAETVLKQQGVLALRPYLQKQPQPSPAEGRAVTNEPEEEELATLSEEEIAMAVTAWEKGLESLPPLRPQQNPVLPVAGERNVLITSALPYVNNVPHLGNIIGCVLSADVFARYSRLRQWNTLYLCGTDEYGTATETKALEEGLTPQEICDKYHIIHADIYRWFNISFDIFGRTTTPQQTKITQDIFQQLLKRGFVLQDTVEQLRCEHCARFLADRFVEGVCPFCGYEEARGDQCDKCGKLINAVELKKPQCKVCRSCPVVQSSQHLFLDLPKLEKRLEEWLGRTLPGSDWTPNAQFITRSWLRDGLKPRCITRDLKWGTPVPLEGFEDKVFYVWFDATIGYLSITANYTDQWERWWKNPEQVDLYQFMAKDNVPFHSLVFPCSALGAEDNYTLVSHLIATEYLNYEDGKFSKSRGVGVFGDMAQDTGIPADIWRFYLLYIRPEGQDSAFSWTDLLLKNNSELLNNLGNFINRAGMFVSKFFGGYVPEMVLTPDDQRLLAHVTLELQHYHQLLEKVRIRDALRSILTISRHGNQYIQVNEPWKRIKGSEADRQRAGTVTGLAVNIAALLSVMLQPYMPTVSATIQAQLQLPPPACSILLTNFLCTLPAGHQIGTVSPLFQKLENDQIESLRQRFGGGQAKTSPKPAVVETVTTAKPQQIQALMDEVTKQGNIVRELKAQKADKNEVAAEVAKLLDLKKQLAVAEGKPPEAPKGKKKK
**Q.** What does the source list for B3?
**A.** Fold Change: 0.6651; Log (Fold Change): -0.1771

B4: sp¦Q96I99¦SUCB2_HUMAN (protein, UniProt Q96I99 38-432, looked up)
Succinate--CoA ligase …: LNLQEYQSKKLMSDNGVRVQRFFVADTANEALEAAKRLNAKEIVLKAQILAGGRGKGVFNSGLKGGVHLTKDPNVVGQLAKQMIGYNLATKQTPKEGVKVNKVMVAEALDISRETYLAILMDRSCNGPVLVGSPQGGVDIEEVAASNPELIFKEQIDIFEGIKDSQAQRMAENLGFVGPLKSQAADQITKLYNLFLKIDATQVEVNPFGETPEGQVVCFDAKINFDDNAEFRQKDIFAMDDKSENEPIENEAAKYDLKYIGLDGNIACFVNGAGLAMATCDIIFLNGGKPANFLDLGGGVKEAQVYQAFKLLTADPKVEAILVNIFGGIVNCAIIANGITKACRELELKVPLVVRLEGTNVQEAQKILNNSGLPITSAIDLEDAAKKAVASVAKK
**Q.** For B4, which “Fold Change” value is on record?
**A.** 0.6651

**Q.** What about the “Log (Fold Change)” value of the same molecule?
**A.** -0.1771

B5: sp¦Q6IBS0¦TWF2_HUMAN (protein, UniProt Q6IBS0 2-349, looked up)
Twinfilin-2: AHQTGIHATEELKEFFAKARAGSVRLIKVVIEDEQLVLGASQEPVGRWDQDYDRAVLPLLDAQQPCYLLYRLDSQNAQGFEWLFLAWSPDNSPVRLKMLYAATRATVKKEFGGGHIKDELFGTVKDDLSFAGYQKHLSSCAAPAPLTSAERELQQIRINEVKTEISVESKHQTLQGLAFPLQPEAQRALQQLKQKMVNYIQMKLDLERETIELVHTEPTDVAQLPSRVPRDAARYHFFLYKHTHEGDPLESVVFIYSMPGYKCSIKERMLYSSCKSRLLDSVEQDFHLEIAKKIEIGDGAELTAEFLYDEVHPKQHAFKQAFAKPKGPGGKRGHKRLIRGPGENGDDS
**Q.** For B5, which “Fold Change” value is on record?
**A.** 0.6717

**Q.** And the “Log (Fold Change)” value?
**A.** -0.1728

B6: sp¦P55060¦XPO2_HUMAN (protein, UniProt P55060 1-971, looked up)
Exportin-2: MELSDANLQTLTEYLKKTLDPDPAIRRPAEKFLESVEGNQNYPLLLLTLLEKSQDNVIKVCASVTFKNYIKRNWRIVEDEPNKICEADRVAIKANIVHLMLSSPEQIQKQLSDAISIIGREDFPQKWPDLLTEMVNRFQSGDFHVINGVLRTAHSLFKRYRHEFKSNELWTEIKLVLDAFALPLTNLFKATIELCSTHANDASALRILFSSLILISKLFYSLNFQDLPEFFEDNMETWMNNFHTLLTLDNKLLQTDDEEEAGLLELLKSQICDNAALYAQKYDEEFQRYLPRFVTAIWNLLVTTGQEVKYDLLVSNAIQFLASVCERPHYKNLFEDQNTLTSICEKVIVPNMEFRAADEEAFEDNSEEYIRRDLEGSDIDTRRRAACDLVRGLCKFFEGPVTGIFSGYVNSMLQEYAKNPSVNWKHKDAAIYLVTSLASKAQTQKHGITQANELVNLTEFFVNHILPDLKSANVNEFPVLKADGIKYIMIFRNQVPKEHLLVSIPLLINHLQAESIVVHTYAAHALERLFTMRGPNNATLFTAAEIAPFVEILLTNLFKALTLPGSSENEYIMKAIMRSFSLLQEAIIPYIPTLITQLTQKLLAVSKNPSKPHFNHYMFEAICLSIRITCKANPAAVVNFEEALFLVFTEILQNDVQEFIPYVFQVMSLLLETHKNDIPSSYMALFPHLLQPVLWERTGNIPALVRLLQAFLERGSNTIASAAADKIPGLLGVFQKLIASKANDHQGFYLLNSIIEHMPPESVDQYRKQIFILLFQRLQNSKTTKFIKSFLVFINLYCIKYGALALQEIFDGIQPKMFGMVLEKIIIPEIQKVSGNVEKKICAVGITKLLTECPPMMDTEYTKLWTPLLQSLIGLFELPEDDTIPDEEHFIDIEDTPGYQTAFSQLAFAGKKEHDPVGQMVNNPKIHLAQSLHKLSTACPGRVPSMVSTSLNAEALQYLQGYLQAASVTLL
**Q.** Which results are given for B6?
**A.** Fold Change: 0.6591; Log (Fold Change): -0.1811

B7: sp¦P21912¦SDHB_HUMAN (protein, UniProt P21912 29-280, looked up)
Succinate dehydrogenase …: AQTAAATAPRIKKFAIYRWDPDKAGDKPHMQTYEVDLNKCGPMVLDALIKIKNEVDSTLTFRRSCREGICGSCAMNINGGNTLACTRRIDTNLNKVSKIYPLPHMYVIKDLVPDLSNFYAQYKSIEPYLKKKDESQEGKQQYLQSIEEREKLDGLYECILCACCSTSCPSYWWNGDKYLGPAVLMQAYRWMIDSRDDFTEERLAKLQDPFSLYRCHTIMNCTRTCPKGLNPGKAIAEIKKMMATYKEKKASV
**Q.** Which “Fold Change” value does the source give for B7 here?
**A.** 0.6622

**Q.** What about the “Log (Fold Change)” value of the same molecule?
**A.** -0.179
